Test [1] has as its target T1, human BTLA on cells (stably transfected 293c18 cells; human peripheral blood T and B cells) (human, UniProt Q7Z6A9 31-289).
T1 construct: whole, on cells; the cells are named under assay; also called cell surface BTLA; full-length human BTLA
Kind of test: competition flow cytometry on 293c18 cells with human BTLA; increase of the binding of DyLight 650-HVEM-Fc (100 nM) with the antibody concentration [panel A]. As to the method: 293c18 cells, clone 1E4 stably expressing human BTLA were harvested with Accutase solution (Millipore Sigma/Sigma-Aldrich) and washed once with PBS, 1% BSA. Cells were plated at 2×10⁵ /well in U-bottom 96-well plates and placed on ice. Purified antibodies at twice the indicated concentrations were serially diluted 3-fold in FACS buffer (PBS, 1% BSA, 0.02% sodium azide). Antibodies tested were human IgG4 isotype control antibody specific for hen egg lysozyme, a reference BTLA IgG4 antagonist antibody, and 6G3 IgG4 (APE10840.06). Trimeric HVEM/LIGHT complexes were pre-formed by mixing equimolar (60 nM each) amounts of DyLight 650-HVEM human IgG1 Fc and trimeric LIGHT-foldon-his and pre-incubating for 15 minutes at room temperature. Either DyLight 650-HVEM-Fc (final concentration 100 nM; FIG. 6A) or pre-formed DyLight 650-HVEM/LIGHT complexes (final concentration of HVEM/LIGHT, 30 nM each; FIG. 6B) were added to the diluted antibodies (final concentrations of antibodies as indicated) and incubated for 15 minutes on ice. […] Cells were washed once, resuspended in FACS buffer and analyzed for fluorescence on a BD FACSArray (BD Biosciences). Median fluorescence intensities (MFI) were graphed in GraphPad Prism (GraphPad Software, Inc.) and curves fit with log(agonist) vs. response (three parameters) least squares fit. […]

Test [2] deals with T2, human BTLA ECD-his (monomeric human BTLA-his) (human, UniProt Q7Z6A9 31-157).
T2 construct: extracellular domain; also called human BTLA extracellular domain
T2 sequence (looked up): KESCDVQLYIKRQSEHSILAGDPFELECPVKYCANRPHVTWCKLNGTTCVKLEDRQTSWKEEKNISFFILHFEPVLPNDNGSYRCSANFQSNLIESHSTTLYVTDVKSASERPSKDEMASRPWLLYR
Kind of test: SPR, Biacore T200, antibody captured on anti-human IgG, monomeric human BTLA-his as analyte, 25 °C, 1:1 model; 6G3 IgG4 (APE10840.05) captured on the chip; human BTLA-his analyte. As to the method:
Surface plasmon resonance (SPR) analyses were carried out using a Biacore T200 (GE Healthcare Life Sciences). Kinetic constants were determined using a 1:1 binding model in the Biacore T200 Evaluation Software to calculate on- and off-rates (kₐ and kd, respectively), and dissociation constants as a measure of overall affinity (KD). Anti-human IgG (GE Healthcare Life Sciences) was immobilized on a CMS chip using EDC-activated amine coupling chemistry (420 seconds contact at a flow rate of 10 μl/min). Antibodies (APE10585.04 6G3 IgG1 and APE10840.05 6G3 IgG4), each at 0.5 μg/m1) were captured in a 60 second contact with the flow cell using a flow rate of 10 μl/min. Monomeric human BTLA-his or cynomolgus monkey BTLA-his at 60 nM, 20 nM, 6.7 nM and 2.2 nM concentrations was flowed over captured antibody (480 seconds association, 1800 seconds dissociation). Runs were at 25° C. and used buffer containing 10 mM HEPES, pH 7.6, 150 mM NaCl, 3 mM EDTA, 0.05% polysorbate 20 (HBS-EP+, pH 7.6; Teknova) for the mobile phase and all dilutions. At the end of each cycle, bound antigen was removed by regeneration with two successive exposures (60 seconds and 90 seconds) to 3 M MgCl2 (30 μl/min). Sensorgrams and binding constants corresponding to the experiment are shown in FIG. 1 (human BTLA) and FIG. 1 (cynomolgus monkey BTLA). […]
(In SPR one partner is held on a chip, and binding of the other changes the refractive index at the surface.)

Test [3] has as its target T1, human BTLA on cells (stably transfected …). Kind of test: flow cytometry (MFI) on 293c18 cells stably expressing human BTLA, goat anti-human kappa-PE detection, four-parameter fit [left panel (Hu BTLA 293c18 cells), EC50 box]. How it is done:
293c18 cell clone 1E4 stably expressing human BTLA construct or clone 1G5 stably expressing cynomolgus monkey BTLA were harvested with Accutase solution (Millipore Sigma/Sigma-Aldrich) and washed once with Phosphate-Buffered Saline, 1% BSA. 293c18 cynomolgus monkey BTLA cells were loaded with the lipophilic carbocyanine dye, DiD (2 μM, 1,1′-dioctadecyl-3,3,3′,3′-tetramenthylindodicarbocyanine; ThermoFisher Scientific) by rocking gently for 10 minutes at room temperature. DiD-stained cells were washed in PBS, 1% BSA and equal amounts of human BTLA 293c18 cells and cynomolgus monkey BTLA 293c18-DiD-stained cells were mixed. Cells (2×10⁵ total cells/sample) were incubated with the indicated concentrations of purified 6G3 IgG4 (two production lots, APE10840.03 and APE10840.04 (H Chain SEQ ID NO: 144, L Chain SEQ ID NO: 174)) or human IgG4 isotype control antibody specific for hen egg lysozyme with gentle shaking for 10 minutes at 4° C. in FACS buffer (PBS, 1% BSA, 0.02% sodium azide). […] Cells were washed and resuspended in FACS buffer and analyzed for fluorescence on a BD FACSArray (BD Biosciences). DiD stained cells expressing cynomolgus monkey BTLA (FIG. 3) were analyzed for median fluorescence intensity (MFI) separately from cells expressing human BTLA (FIG. 3). […]
Background: Flow cytometry measures light scatter and fluorescence of single cells or particles in a stream.

“And” between values parts separate entries of the source, which are not always exact repeats. Identical values can stand only once.

B1: 6G3 IgG4 anti-BTLA antibody (APE10840 / APE12839 / APE13308) (antibody, V domains shown)
VH: QVQLVQSGAEVKKPGSSVKVSCKASGYVFSTSWMNWVRQAPGQGLEWMGRIYPGDADTNYVGKFKGRVTITADKSTTTAYMELSSLRSEDTAVYFCAKSGTFNFGNYRWYFDVWGKGTTVTVSS
VL: AIQLTQSPSSLSASVGDRVTITCRVSENIYSHLAWYQQKPGKAPKLLIYAATNLALGVPSRFSGSGSGTDYTLTISSLQPEDFATYYCQLFWGPPLTFGGGTKVEIKR
notes: Humanized antibody from a mouse hybridoma, tested as human IgG4 (detected with anti-human kappa); Some assays used labelled lots (DyLight 650, AF647, biotin, DyL488); also called 6G3 antibody; APE10840.03
For B1, in test [1], the 50% effective concentration (EC50 (read off the curve)) was about 0.7 nM. The same molecule came in with a Kd in test [2] of about 5 nM. Further, the EC50 in test [3] was 1.69 nM and 1.79 nM.

The EC50 (read off the curve) is the concentration giving half of the maximal effect. A lower EC50 (read off the curve) goes with greater potency. Broadly, the Kd is a measure of binding affinity in units of concentration. A word on the EC50: it is the concentration needed to bring the measured effect to its halfway point. A low value points to higher potency in that assay.

The values above are taken from US20230391872A1 (ANAPTYSBIO, published 2023).
